{"source": "patent US12186353B2", "about": "“Method of reducing neuronal microtubule binding protein Tau (Tau) levels” (ADAERATA, LIMITED PARTNERSHIP, priority 2018, dated 2025)", "molecules": {"B1": {"name": "Numb-72: 72 kDa Numb isoform with long PTB domain and long PRR; human isoform 1 (SEQ ID NO: 1); expressed by transfection (protein)", "chain": "MNKLRQSFRRKKDVYVPEASRPHQWQTDEEGVRTGKCSFPVKYLGHVEVDESRGMHICEDAVKRLKAERKFFKGFFGKTGKKAVKAVLWVSADGLRVVDEKTKDLIVDQTIEKVSFCAPDRNFDRAFSYICRDGTTRRWICHCFMAVKDTGERLSHAVGCAFAACLERKQKREKECGVTATFDASRTTFTREGSFRVTTATEQAEREEIMKQMQDAKKAETDKIVVGSSVAPGNTAPSPSSPTSPTSDATTSLEMNNPHAIPRRHAPIEQLARQGSFRGFPALSQKMSPFKRQLSLRINELPSTMQRKTDFPIKNAVPEVEGEAESISSLCSQITNAFSTPEDPFSSAPMTKPVTVVAPQSPTFQANGTDSAFHVLAKPAHTALAPVAMPVRETNPWAHAPDAANKEIAATCSGTEWGQSSGAASPGLFQAGHRRTPSEADRWLEEVSKSVRAQQPQASAAPLQPVLQPPPPTAISQPASPFQGNAFLTSQPVPVGVVPALQPAFVPAQSYPVANGMPYPAPNVPVVGITPSQMVANVFGTAGHPQAAHPHQSPSLVRQQTFPHYEASSATTSPFFKPPAQHLNGSAAFNGVDDGRLASADRHTEVPTGTCPVDPFEAQWAALENKSKQRTNPSPTNPFSSDLQKTFEIEL", "modifications": "homo sapiens", "notes": "72 kDa Numb isoform with long PTB domain and long PRR; expressed by transfection"}}, "test_system": "primary RGC neuron cultures", "experiment": "Axonal blebs, neurite length and branching in transfected primary RGC neuron cultures of AD and tauopathy mice", "assay_type": "cell-based, mouse", "conditions": "for number of axonal blebs: plasmid transfection, two weeks later, vs GFP", "description": "FIGS. 10A-H: Numb72 reduces blebbing in AD mouse model RGCs. FIG. 10A. Primary retinal cultures were performed at P8 and cells were transfected using an Amaxa™ electroporator and analysed 14 days later. Cells GFP and NF165 positive were analysed in B6129J mouse line (Control) and triple transgenic mice (3×TGAD) expressing three mutations associated with familial Alzheimer's disease (APP Swedish, MAPT P301L, and PSEN1 M146V) after transfection of GFP or Numb-72 IRES::GFP. […] FIGS. 10B-D. Quantification of relative number of axonal blebs (FIG. 10B); axon (neurites) length (FIG. 10C) and branching number (FIG. 10D) in Control (B6129J) and 3×TGAD RGC axons was performed. Control numbers were normalized to 1. Error bars represent SEM, ** p≤0.001; n.s. non-significant; Anova 2 way for blebs and Student's t test for length and branching. FIG. 10E Primary retinal culture was performed at P8 and cells were transfected using an Amaxa™ electroporator and analysed 14 days later. Cells GFP and NF165 positive were analysed in C57b6 mouse line (Control) and P301S Tau mutant (TauP301S) (model of tauopathy) after transfection of GFP or Numb-72 IRES::GFP. […] FIGS. 10F-H. Quantification of relative number of axonal blebs (FIG. 10F); axon (neurites) length (FIG. 10G) and branching number (FIG. 7H) in Control (C57b6) (Control, FIGS. 10F-H) and TauP301S (FIGS. 10F-H) RGC axons was performed. Control numbers were normalized to 1. Error bars represent SEM, * p≤0.05; n.s. non-significant Anova 2 way for blebs and Student's t test for length and branching.\nRetinal tissues were isolated from eyeballs of postnatal day 7 (P7) mice, cut in small pieces and incubated in PBS containing 5 mg/ml of papain, 0.24 mg/ml of L-cysteine, 0.5 mmol/l of EDTA, and 10 U/ml of DNase I for 2×3 min. The reaction was stopped by adding Lo-Ovo solution in PBS, and 10 U/ml of DNase I. The retinal cells were mechanically dissociated by gentle pipetting and collected as a suspension. Procedures were conducted at room temperature in a laminar flow hood. After centrifugation at 1000 rpm for 11 min, cells were resuspended in RGCs media and plate on glass coverslips at 50′000 cells/coverslips on a 24 wells plate and incubated at 37° C.; 8% CO2 for 2 weeks, half media was changed every 3 days. […]\nTo determine the neuroprotective effects of Numb-72, the inventors prepared primary RGC neuron cultures from control mice, triple transgenic mice (3×TGAD) expressing three mutations associated with familial Alzheimer's disease (APP Swedish, MAPT P301L, and PSEN1 M146V), or a P301S Tau mutant (model of tauopathy), and then expressed GFP or Numb-72 in these neurons by plasmid transfection. Two weeks later, the length of neurites, the number of branches, and the number of axonal blebs were counted.", "key": {"[1]": {"conditions": "control, 3xTGAD and P301S RGC neurons, two weeks after transfection"}}}
{"molecule": "B1", "values": [{"measurement": "number of axonal blebs", "setting": "3xTGAD RGC neurons", "value": "reduced back to control levels"}, {"measurement": "number of axonal blebs", "setting": "P301S Tau mutant RGC neurons", "value": "reduced back to control levels"}, {"measurement": "neurite length", "setting": "[1]", "value": "not changed in any condition"}, {"measurement": "number of branches", "setting": "[1]", "value": "not changed in any condition"}]}
